Experimental data from article PMC6696043, “Aptamers in Education: Undergraduates Make Aptamers and Acquire 21st Century Skills Along the Way”.

Tests used:
[1] = target: calf intestinal alkaline phosphatase (CIAP) (calf) (UniProt P19111); assay: 32P-RNA binding assay; conditions: RNA 5 nM, triplicate; Selection buffer 20 mM HEPES pH 7.5, 150 mM NaCl, 5 mM MgCl2, room temperature; binding assay conditions not separately stated (refers to cited protocol)
[2] = target: T1, calf intestinal alkaline phosphatase (CIAP) (calf, UniProt P19111 20-506); assay: 32P-RNA binding assay; RNA 5 nM, triplicate; Selection buffer 20 mM HEPES pH 7.5, 150 mM NaCl, 5 mM MgCl2, room temperature; binding assay conditions not separately stated (refers to cited protocol); conditions: protein: commercial, tags: biotinylated (Pierce 29339, 69 kDa), chain copies: 2, label: 32P
[3] = target: T1, calf intestinal alkaline phosphatase …; assay: 32P-RNA binding assay; Selection buffer 20 mM HEPES pH 7.5, 150 mM NaCl, 5 mM MgCl2, room temperature; binding assay conditions not separately stated (refers to cited protocol); conditions: protein: commercial; tags: biotinylated (Pierce 29339, 69 kDa); chain copies: 2; label: 32P; stem-loop, GGG/CCC closing stem
[4] = target: T2, human tissue-nonspecific alkaline phosphatase (human, UniProt P05186 18-501); assay: 32P-RNA binding assay; up to 250 nM protein, single point; Selection buffer 20 mM HEPES pH 7.5, 150 mM NaCl, 5 mM MgCl2, room temperature; binding assay conditions not separately stated (refers to cited protocol); conditions: protein: recombinant; chain copies: 2; label: 32P; stem-loop, GGG/CCC closing stem
T2 sequence: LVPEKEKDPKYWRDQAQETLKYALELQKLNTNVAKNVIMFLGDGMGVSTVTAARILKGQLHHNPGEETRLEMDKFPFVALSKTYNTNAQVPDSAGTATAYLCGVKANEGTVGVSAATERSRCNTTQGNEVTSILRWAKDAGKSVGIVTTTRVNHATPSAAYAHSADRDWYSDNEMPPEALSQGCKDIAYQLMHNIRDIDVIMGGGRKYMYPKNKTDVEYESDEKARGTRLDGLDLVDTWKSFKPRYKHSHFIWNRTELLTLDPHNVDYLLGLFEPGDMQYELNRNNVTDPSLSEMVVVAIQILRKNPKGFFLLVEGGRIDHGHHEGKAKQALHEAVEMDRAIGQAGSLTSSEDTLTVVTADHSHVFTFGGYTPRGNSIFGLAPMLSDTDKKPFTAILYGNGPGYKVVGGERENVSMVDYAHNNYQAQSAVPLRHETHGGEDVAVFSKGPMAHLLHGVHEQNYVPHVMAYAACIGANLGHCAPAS

[5] = target: human intestinal alkaline phosphatase (human, UniProt P09923 20-503); assay: as above; conditions: protein: recombinant; chain copies: 2; label: 32P; stem-loop, GGG/CCC closing stem
[6] = target: T1, calf intestinal alkaline phosphatase …; assay: 32P-RNA bead binding assay; not above no-protein beads; Selection buffer 20 mM HEPES pH 7.5, 150 mM NaCl, 5 mM MgCl2, room temperature; binding assay conditions not separately stated (refers to cited protocol); conditions: protein: commercial; tags: biotinylated (Pierce 29339, 69 kDa); chain copies: 2; label: 32P
[7] = target: T1, calf intestinal alkaline phosphatase …; assay: 32P-RNA bead binding assay; not above no-protein beads; prefers naked beads; Selection buffer 20 mM HEPES pH 7.5, 150 mM NaCl, 5 mM MgCl2, room temperature; binding assay conditions not separately stated (refers to cited protocol); conditions: protein: commercial; tags: biotinylated (Pierce 29339, 69 kDa); chain copies: 2; label: 32P

T1 sequence (P19111 20-506): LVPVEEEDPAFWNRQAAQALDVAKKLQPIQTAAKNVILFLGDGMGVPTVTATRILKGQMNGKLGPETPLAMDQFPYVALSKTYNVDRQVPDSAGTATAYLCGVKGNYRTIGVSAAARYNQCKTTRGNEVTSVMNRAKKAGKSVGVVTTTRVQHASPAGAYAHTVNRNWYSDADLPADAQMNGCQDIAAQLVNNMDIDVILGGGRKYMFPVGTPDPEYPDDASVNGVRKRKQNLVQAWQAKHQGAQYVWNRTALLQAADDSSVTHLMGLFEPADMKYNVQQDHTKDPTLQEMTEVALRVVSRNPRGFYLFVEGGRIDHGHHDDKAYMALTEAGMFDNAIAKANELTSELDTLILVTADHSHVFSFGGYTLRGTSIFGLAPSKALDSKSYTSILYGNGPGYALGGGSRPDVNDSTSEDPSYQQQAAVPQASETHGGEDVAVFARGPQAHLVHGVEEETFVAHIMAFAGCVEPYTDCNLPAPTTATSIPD
Chain of calf intestinal alkaline phosphatase (CIAP) (calf) (P19111 20-506): as above
Chain of human intestinal alkaline phosphatase (P09923 20-503): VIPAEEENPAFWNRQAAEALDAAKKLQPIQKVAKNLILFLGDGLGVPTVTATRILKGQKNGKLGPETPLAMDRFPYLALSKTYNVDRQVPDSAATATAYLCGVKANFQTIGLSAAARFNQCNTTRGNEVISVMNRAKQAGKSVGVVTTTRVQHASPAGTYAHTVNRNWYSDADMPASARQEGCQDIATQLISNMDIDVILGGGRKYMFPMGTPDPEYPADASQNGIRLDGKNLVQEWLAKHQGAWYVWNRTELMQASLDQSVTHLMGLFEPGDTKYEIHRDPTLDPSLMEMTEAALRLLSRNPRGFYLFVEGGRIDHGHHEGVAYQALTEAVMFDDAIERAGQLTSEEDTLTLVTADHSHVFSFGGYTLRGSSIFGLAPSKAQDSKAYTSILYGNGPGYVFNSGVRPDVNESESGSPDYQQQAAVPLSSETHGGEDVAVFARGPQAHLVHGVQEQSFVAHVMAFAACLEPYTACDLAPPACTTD

Molecule: GGGUUUACCUAGGUGUAGAUGCUUCWAUUGAUAUGUUAUAACUGAACUCAACAUAAGGAUAUGAUGUAUGAUCAAGUGACGUCUGAACUGCUUCGAA [aptamer clone 4-9]
- Kd [1]: 9.4 nM

B1: aptamer clone 4-3 (structured_RNA)
RNA: GGGUUUACCUAGGUGUAGAUGCUGUAUAUAGCGAACUCAACAUAAGGUAUAAUUACAAUUUCUAUACUUCUUCAAGUGACGUCUGAACUGCUUCGAA
- Kd ([2]; VDH motif in loop): 5 nM

B2: minimized aptamer variant 3.1 (structured_RNA)
RNA: GGGUAGAUGCUGUAUAUAGCGAACUCAACAUAAGGUAUAAUUACAAUUUCUACCC
- Kd [3]: 6.7 nM
- binding result [4]: no binding
- binding result [5]: no binding

B3: aptamer clone 3-6 (structured_RNA)
RNA: GGGUUUACCUAGGUGUAGAUGCUCUGCCCUUCAGAUUUAUCGAUGACCGUUGAACUCAACAUAAGACCUUCCAAAGUGACGUCUGAACUGCUUCGAA
- Kd ([2]; VDH motif in loop and stem): 10.8 nM

B4: clone c2-4 (structured_RNA)
RNA: GGGUUUACCUAGGUGUAGAUGCUUCUUCACUCCUUAUGAACACGUAGCGCUCAAUCAUCUCUAAUUAAUUCUCAAGUGACGUCUGAACUGCUUCGAA
- binding result [6]: no binding

B5: clone c2-1 (structured_RNA)
RNA: GGGUUUACCUAGGUGUAGAUGCUGAUAGAUUUCCCCUGACUUAGGAGCUCAUUAGAUUUUUAUUGUGUGGGGCAAGUGACGUCUGAACUGCUUCGAA
- binding result [7]: no binding
